From patent US20240069022A1 (ASAHI KASEI, published 2024)

Legend:
[1] = biological target: recombinant ribosomal protein L7/L12 of Escherichia coli, tag fusion protein (Escherichia coli, UniProt P0A7K2 1-121); assay: ELISA, recombinant L7/L12 coated, antibody 10 ug/mL; +: A450 >=0.3
From the text: (§1) The thus-produced Specific Antibodies A to C (antibodies of the present invention) and Generic Antibodies A and B were used to obtain data on the reactivity with ribosome protein L7/L12 of plural genera of Enterobacteriaceae bacteria by means of ELISA. Seven species of Enterobacteriaceae bacteria were selected for the study: Escherichia coli (EC), Klebsiella pneumoniae (KP), Citrobacter freundii (CF), Enterobacter cloacae (ECL), Proteus mirabilis (PM), Salmonella enterica (SE), and Serratia liquefaciens (SL), which are frequently detected in food, beverage, environmental, or biological samples. Four species of bacteria other than Enterobacteriaceae (non-Enterobacteriaceae bacteria) were also selected for the study: Pseudomonas aeruginosa (PA), Staphylococcus aureus (SA), Bacillus subtilis (BS), and Enterococcus faecalis (EF), which are frequently detected in food, beverage, environmental, or biological samples. E. coli transformed with expression vectors incorporating DNA encoding the amino acid sequence of ribosomal protein L7/L12 of each of the above seven Enterobacteriaceae and four non-Enterobacteriaceae species were cultured using, e.g., LB medium, and the ribosomal protein L7/L12 was purified as a fusion protein by affinity columns using tag sequences derived from the expression vector.
(§2) 50 μL of 10 ng/mL solution of the ribosomal protein L7/L12 of each bacterial species was dropped into each well of a 96-well polystyrene plate for ELISA and solidified on the bottom of the plate. After washing each well three times with PBS-T (PBS with Tween 20), blocking treatment was performed with PBS containing 1% BSA (Bovine Serum Albumin). After blocking, the wells were washed three times with PBS-T, and 50 µL of 10 μg/mL solution of each of the Specific Antibodies A to C and Generic Antibodies A and B was dropped into each well for 1 hour for antigen-antibody reactions. After the reactions, the samples were washed three times with PBS-T, and then 0.5 μg/mL of HRP (Horse Radish Peroxidase) labeled secondary antibody (Goat Anti-mouse IgG: Goat Anti-mouse IgG), which is the enzyme for detection, was added dropwise. After the reaction, the wells were washed five times with PBS-T, and 100 μL of a mixture of tetramethylbenzidine (TMB) and hydrogen peroxide, the chromogenic substrate, was added dropwise to each well for the chromogenic reaction.

[2] = biological target: T1, ribosome protein L7/L12 of Pseudomonas aeruginosa, native, in bacterial lysate (Pseudomonas aeruginosa, UniProt Q9HWC8 1-122); assay: ELISA, bacterial lysate coated
T1 construct: also called PA; P. aeruginosa lysate
T1 sequence: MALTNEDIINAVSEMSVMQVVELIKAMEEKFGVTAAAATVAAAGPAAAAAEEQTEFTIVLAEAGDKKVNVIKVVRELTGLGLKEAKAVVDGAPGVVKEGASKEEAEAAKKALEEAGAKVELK
From the text: (§3) The thus-produced Specific Antibodies A to C (antibodies of the present invention) and Generic Antibodies A and B were used to obtain data on the reactivity with plural genera of Enterobacteriaceae bacteria and bacteria other than Enterobacteriaceae (non-Enterobacteriaceae bacteria) by means of ELISA. […] The seven species of Enterobacteriaceae bacteria and four species of non-Enterobacteriaceae bacteria described above were purchased and cultured from ATCC, prepared at 1×e⁸ cfu/mL each, and suspended in PBS. Each bacterium was lysed by sonication, and debris was removed by filtration through a filter with a 0.45-μm mesh opening to obtain the bacterial lysate of each bacterium.
(§4) 50 μL of the above bacterial lysate was dropped into each well of a 96-well polystyrene plate for ELISA and solidified on the bottom of the plate. After washing each well three times with PBS-T (PBS with Tween 20), blocking treatment was performed with PBS containing 1% BSA (Bovine Serum Albumin). After blocking, the wells were washed three times with PBS-T, and 50 μL of 10 μg/mL solution of each of the Specific Antibodies A to C and Generic Antibodies A and B was dropped into each well for 1 hour for antigen-antibody reactions. After the reactions, the samples were washed three times with PBS-T, and then 0.5 μg/mL of HRP (Horse Radish Peroxidase) labeled secondary antibody (Goat Anti-mouse IgG: Goat Anti-mouse IgG), which is the enzyme for detection, was added dropwise. After the reaction, the wells were washed five times with PBS-T, and 100 μL of a mixture of tetramethylbenzidine (TMB) and hydrogen peroxide, the chromogenic substrate, was added dropwise to each well for the chromogenic reaction.

[3] = biological target: T2, ribosome protein L7/L12 of Bacillus subtilis, native, in bacterial lysate (Bacillus subtilis, UniProt P02394 2-123); assay: ELISA, bacterial lysate coated
T2 construct: also called BS; B. subtilis lysate
T2 sequence: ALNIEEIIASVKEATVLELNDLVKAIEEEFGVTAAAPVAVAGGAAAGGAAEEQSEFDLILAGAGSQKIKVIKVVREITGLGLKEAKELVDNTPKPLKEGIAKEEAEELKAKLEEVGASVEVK
From the text: as §3, §4

[4] = biological target: T3, recombinant ribosomal protein L7/L12 of Pseudomonas aeruginosa, tag fusion protein (Pseudomonas aeruginosa, UniProt Q9HWC8 1-122); assay: ELISA, recombinant L7/L12 (10 ng/mL) coated
T3 sequence: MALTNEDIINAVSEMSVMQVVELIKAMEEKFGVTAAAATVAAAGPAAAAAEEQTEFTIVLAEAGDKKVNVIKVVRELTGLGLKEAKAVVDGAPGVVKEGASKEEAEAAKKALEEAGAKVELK
From the text: as §1, §2

[5] = biological target: T4, recombinant ribosomal protein L7/L12 of Bacillus subtilis, tag fusion protein (Bacillus subtilis, UniProt P02394 1-123); assay: ELISA, recombinant L7/L12 (10 ng/mL) coated
T4 sequence: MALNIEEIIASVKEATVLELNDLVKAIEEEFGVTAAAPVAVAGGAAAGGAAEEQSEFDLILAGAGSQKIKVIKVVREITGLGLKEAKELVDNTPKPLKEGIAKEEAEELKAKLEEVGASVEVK
From the text: as §1, §2

[6] = biological target: T2, ribosome protein L7/L12 of Bacillus …; assay: lateral-flow sandwich kit (a) on lysate; capture Specific Antibody A, gold-labelled detection Generic Antibody A

Chain of recombinant ribosomal protein L7/L12 of Escherichia coli, tag fusion protein (P0A7K2 whole entry, the tested form may be a part): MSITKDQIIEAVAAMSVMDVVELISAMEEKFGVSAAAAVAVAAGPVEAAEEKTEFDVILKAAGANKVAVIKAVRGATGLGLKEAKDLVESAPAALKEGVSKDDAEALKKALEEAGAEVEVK

Binder	binding result [1]	binding result [2]	binding result [3]	binding result [4]	binding result [5]	binding result [6]
Generic Antibody A (PA51B2) (antibody, V domains shown) VH: QVQLQQPGSVLVRPGASVKLSCKPSGYTFTGSWMHWTKQRPGQGLEWIGEIHPYSGNTNYNEKFRVKATLTVDTSSSTTYVDLSSLTSDDSAVYYCASGDFDAGFTYWGQGTLVTVSA VL: DIVLTQSPASLAVSLGRRATISCKASQSVDYDGDSYMNWYQQKPGQPPKLLIYVASNLESGIPARFSGSGSGTDFTLNIHPVEEEDAATYYCQQTNEDPFTFGAGTKLELK	binds					
Specific Antibody B (EC149C3) (antibody, V domains shown) VH: QVQLQQSGAELVKPGASVKLSCKASDYTFTNFYIYWVKQRPGQGLEWIGEINPSNGYTTFNVKFKSKATLTVDKSSSTAYMQLSSLTSEDSAVYYCTRNYGGSRCAYWGQGTLVTVSA VL: DVLMTQTPLSLPVSLGDQASISCRSSQSIVHSNGNTYLEWYLQKPGQSPKLLIYKVSNRFSGVPDRFSGSGSGTDFTLKISRVEAEDLGVYYCFQGSHVPWTFGGGTKLEIK		no binding (tested: Absorbance <0.3 at 10 ug/mL antibody)	no binding (tested: Absorbance <0.3 at 10 ug/mL antibody)	no binding (tested: Absorbance <0.3 at 10 ug/mL antibody)	no binding (tested: Absorbance <0.3 at 10 ug/mL antibody)	
Specific Antibody A (EC50C1) (antibody, V domains shown) VH: QVQLQQSGAELAKPGASVKMSCKASGYTFTSYWMNWVKQRPGQGLEWIGYINPNTGYTEYDQKFKDKATLTADKSSSTAYMQLSSLTSEDSAVYYCARYWAYFEYWGQGTTLTVSS VL: DIKMTQSPSSMYASLGERVTITCKASQDINSYLSWFQQKPGKSPKTLIYRANRLVDGVPSRFSGSGSGQDYSLTISSLEYEDMGIYYCLQYDEFRTFGGGTKLEIK	binds	no binding (tested: Absorbance <0.3 at 10 ug/mL antibody)		no binding (tested: Absorbance <0.3 at 10 ug/mL antibody)	no binding (tested: Absorbance <0.3 at 10 ug/mL antibody)	no binding (tested: Visually negative)
Generic Antibody B (CP141A190.1) (antibody, V domains shown) VH: QVQLQQPGAELVKPGASVKLSCKTSGYNFTSNWIHWVKQRPGQGLEWIGEINPSNGRANYNEKFKNKATLTVDKSSSTAFMHLSSLTSEDSAVYFCSRGDFDEGFTYWGQGTLVTVSA VL: QIVLTQSPAIMSASLGERVTMTCTASSNVNSDYLHWYQQKPGSSPRLWIYTTSNLASGVPTRFSGNGSGTSYSLTISSMEAEDAATYYCHQYHRSPRTFGGGTKLEIK	binds					
Specific Antibody C (EC162A3) (antibody, V domains shown) VH: QVQLQQSGTELAKPGASVQMSCKASGYTFTSYWMHWVKQRPGQGLEWIGYINPNTGYTEYNQQFKDKATLTADKSSSTAYMQLSSLTSEDSAVYYCANYFAWFGYWGQGTLVTVSA VL: DIKMTQSPSSMYASLGERVTVTCKASQDIYSYLNWFQQKPGKSPKTLIYRANRLVDGVPSRFSGSGSGQEYSLTISSLEHEDMGIYYCLQHDQHPYTFGSGTKLEIK	binds	no binding (tested: Absorbance <0.3 at 10 ug/mL antibody)	no binding (tested: Absorbance <0.3 at 10 ug/mL antibody)	no binding (tested: Absorbance <0.3 at 10 ug/mL antibody)	no binding (tested: Absorbance <0.3 at 10 ug/mL antibody)	
